Key:
HeLa Kyoto [1] = test: solubility in G1/S (NP-40 vs SDS abundance) (log2 ratio); higher = more soluble; conditions: cell cycle stage: G1/S
HeLa Kyoto [2] = test: solubility change mitosis vs G1/S (difference of NP-40 vs SDS log2 ratios) (log2 ratio difference); higher = more soluble in mitosis
HeLa Kyoto [3] = test: melting temperature (median over replicates), in situ; higher = more thermally stable
HeLa Kyoto [4] = test: thermal stability score vs G1/S (z-score of summed log2 fold changes over temperatures); higher = more thermally stable than in G1/S
[5] = cell cycle stage: early G1 (4.5 h after nocodazole release)
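Throughout, for melting temperature (median over replicates), in situ: HeLa Kyoto cells synchronized by double thymidine or nocodazole block, proteins quantified by TMT10plex mass spectrometry, three independent biological replicates.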
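Throughout, for solubility change mitosis vs G1/S (difference of NP-40 vs SDS log2 ratios): synchronized HeLa Kyoto cells (double thymidine block for G1/S, nocodazole release for mitosis), protein amounts in NP-40 versus SDS lysates quantified by mass spectrometry, three biological replicates.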
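Throughout, for solubility in G1/S (NP-40 vs SDS abundance): HeLa Kyoto cells arrested at G1/S by double thymidine block, proteins quantified by TMT10plex mass spectrometry in mild NP-40 versus SDS extracts, three biological replicates.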
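Throughout, for thermal stability score vs G1/S (z-score of summed log2 fold changes over temperatures): synchronized HeLa Kyoto cells, proteins quantified by TMT10plex mass spectrometry, three biological replicates, mitosis taken 0.5 h after nocodazole release, G1/S directly after double thymidine block.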

Sequence	solubility in G1/S (log2) (HeLa Kyoto [1])	solubility change mitosis (log2) (HeLa Kyoto [2])	melting temperature (HeLa Kyoto [3]; cell cycle stage: G1/S)	melting temperature (HeLa Kyoto [3]; cell cycle stage: mitosis)	thermal stability score (HeLa Kyoto [4]; [5])	thermal stability score (HeLa Kyoto [4]; cell cycle stage: mitosis)
MERFRLEKKLPGPDEEAVVDLGKTSSTVNTKFEKEELESHRAVYIGVHVPFSKESRRRHRHRGHKHHHRRRKDKESDKEDGRESPSYDTPSQRVQFILGTEDDDEEHIPHDLFTEMDELCYRDGEEYEWKETARWLKFEEDVEDGGDRWSKPYVATLSLHSLFELRSCILNGTVMLDMRASTLDEIADMVLDNMIASGQLDESIRENVREALLKRHHHQNEKRFTSRIPLVRSFADIGKKHSDPHLLERNGEGLSASRHSLRTGLSASNLSLRGESPLSLLLGHLLPSSRAGTPAGSRCTTPVPTPQNSPPSSPSISRLTSRSSQESQRQAPELLVSPASDDIPTVVIHPPEEDLEAALKGEEQKNEENVDLTPGILASPQSAPGNLDNSKSGEIKGNGSGGSRENSTVDFSKVDMNFMRKIPTGAEASNVLVGEVDFLERPIIAFVRLAPAVLLTGLTEVPVPTRFLFLLLGPAGKAPQYHEIGRSIATLMTDEIFHDVAYKAKDRNDLLSGIDEFLDQVTVLPPGEWDPSIRIEPPKSVPSQEKRKIPVFHNGSTPTLGETPKEAAHHAGPELQRTGRLFGGLILDIKRKAPFFLSDFKDALSLQCLASILFLYCACMSPVITFGGLLGEATEGRISAIESLFGASLTGIAYSLFAGQPLTILGSTGPVLVFEKILYKFCRDYQLSYLSLRTSIGLWTSFLCIVLVATDASSLVCYITRFTEEAFAALICIIFIYEALEKLFDLGETYAFNMHNNLDKLTSYSCVCTEPPNPSNETLAQWKKDNITAHNISWRNLTVSECKKLRGVFLGSACGHHGPYIPDVLFWCVILFFTTFFLSSFLKQFKTKRYFPTKVRSTISDFAVFLTIVIMVTIDYLVGVPSPKLHVPEKFEPTHPERGWIISPLGDNPWWTLLIAAIPALLCTILIFMDQQITAVIINRKEHKLKKGAGYHLDLLMVGVMLGVCSVMGLPWFVAATVLSISHVNSLKVESECSAPGEQPKFLGIREQRVTGLMIFILMGLSVFMTSVLKFIPMPVLYGVFLYMGVSSLKGIQLFDRIKLFGMPAKHQPDLIYLRYVPLWKVHIFTVIQLTCLVLLWVIKVSAAAVVFPMMVLALVFVRKLMDLCFTKRELSWLDDLMPESKKKKEDDKKKKEKEEAERMLQDDDDTVHLPFEGGSLLQIPVKALKYSPDKPVSVKISFEDEPRKKYVDAETSL [SLC4A7]	-0.196	0.0133	54.4 °C	53.6 °C	-0.753	1.69
MERHQPRLHHPAQGSAAGTPYPSSASLRGCRESKMPRRKGPQHPPPPSGPEEPGEKRPKFHLNIRTLTDDMLDKFASIRIPGSKKERPPLPNLKTAFASSDCSAAPLEMMENFPKPLSENELLELFEKMMEDMNLNEDKKAPLREKDFSIKKEMVMQYINTASKTGSLKRSRQISPQEFIHELKMGSADERLVTCLESLRVSLTSNPVSWVESFGHEGLGLLLDILEKLISGKIQEKVVKKNQHKVIQCLKALMNTQYGLERIMSEERSLSLLAKAVDPRHPNMMTDVVKLLSAVCIVGEESILEEVLEALTSAGEEKKIDRFFCIVEGLRHNSVQLQVACMQLINALVTSPDDLDFRLHIRNEFMRCGLKEILPNLKCIKNDGLDIQLKVFDEHKEEDLFELSHRLEDIRAELDEAYDVYNMVWSTVKETRAEGYFISILQHLLLIRNDYFIRQQYFKLIDECVSQIVLHRDGMDPDFTYRKRLDLDLTQFVDICIDQAKLEEFEEKASELYKKFEKEFTDHQETQAELQKKEAKINELQAELQAFKSQFGALPADCNIPLPPSKEGGTGHSALPPPPPLPSGGGVPPPPPPPPPPPLPGMRMPFSGPVPPPPPLGFLGGQNSPPLPILPFGLKPKKEFKPEISMRRLNWLKIRPHEMTENCFWIKVNENKYENVDLLCKLENTFCCQQKERREEEDIEEKKSIKKKIKELKFLDSKIAQNLSIFLSSFRVPYEEIRMMILEVDETRLAESMIQNLIKHLPDQEQLNSLSQFKSEYSNLCEPEQFVVVMSNVKRLRPRLSAILFKLQFEEQVNNIKPDIMAVSTACEEIKKSKSFSKLLELVLLMGNYMNAGSRNAQTFGFNLSSLCKLKDTKSADQKTTLLHFLVEICEEKYPDILNFVDDLEPLDKASKVSVETLEKNLRQMGRQLQQLEKELETFPPPEDLHDKFVTKMSRFVISAKEQYETLSKLHENMEKLYQSIIGYYAIDVKKVSVEDFLTDLNNFRTTFMQAIKENIKKREAEEKEKRVRIAKELAERERLERQQKKKRLLEMKTEGDETGVMDNLLEALQSGAAFRDRRKRTPMPKDVRQSLSPMSQRPVLKVCNHENQKVQLTEGSRSHYNINCNSTRTPVAKELNYNLDTHTSTGRIKAAEKKEACNVESNRKKETELLGSFSKNESVPEVEALLARLRAL [DIAPH3]	0.186	-0.183	46.8 °C	46.4 °C	1.77	3.55
MERKVLALQARKKRTKAKKDKAQRKSETQHRGSAPHSESDLPEQEEEILGSDDDEQEDPNDYCKGGYHLVKIGDLFNGRYHVIRKLGWGHFSTVWLSWDIQGKKFVAMKVVKSAEHYTETALDEIRLLKSVRNSDPNDPNREMVVQLLDDFKISGVNGTHICMVFEVLGHHLLKWIIKSNYQGLPLPCVKKIIQQVLQGLDYLHTKCRIIHTDIKPENILLSVNEQYIRRLAAEATEWQRSGAPPPSGSAVSTAPQPKPADKMSKNKKKKLKKKQKRQAELLEKRMQEIEEMEKESGPGQKRPNKQEESESPVERPLKENPPNKMTQEKLEESSTIGQDQTLMERDTEGGAAEINCNGVIEVINYTQNSNNETLRHKEDLHNANDCDVQNLNQESSFLSSQNGDSSTSQETDSCTPITSEVSDTMVCQSSSTVGQSFSEQHISQLQESIRAEIPCEDEQEQEHNGPLDNKGKSTAGNFLVNPLEPKNAEKLKVKIADLGNACWVHKHFTEDIQTRQYRSLEVLIGSGYNTPADIWSTACMAFELATGDYLFEPHSGEEYTRDEDHIALIIELLGKVPRKLIVAGKYSKEFFTKKGDLKHITKLKPWGLFEVLVEKYEWSQEEAAGFTDFLLPMLELIPEKRATAAECLRHPWLNS [SRPK1]	-0.411	0.114	51.7 °C	51.3 °C	0.23	-0.71
MERPDKAALNALQPPEFRNESSLASTLKTLLFFTALMITVPIGLYFTTKSYIFEGALGMSNRDSYFYAAIVAVVAVHVVLALFVYVAWNEGSRQWREGKQD [VMA21]	-0.135	-0.124	55.6 °C	56.7 °C	-1.79	-0.397

— the supplement of paper PMC5998384
